What was measured:
[1] = biological target: T1, human prostate specific membrane antigen (PSMA), full-length, on cells (human, UniProt Q04609 1-750); assay: FMAT cell binding, huPSMA CHO 1A10 cells, after 4 days in human serum at 37 C
T1 construct: also called huPSMA; human PSMA

[2] = biological target: T2, recombinant human PSMA (R&D, cat. no. 4234-ZN) (human, UniProt Q04609 44-750); assay: Octet RED384 BLI, PSMA on sensor, VH series from 0.375 ug/ml
T2 construct: Bought protein; also called rhPSMA; Recombinant PMSA
T2 sequence (Q04609 44-750 limits assumed): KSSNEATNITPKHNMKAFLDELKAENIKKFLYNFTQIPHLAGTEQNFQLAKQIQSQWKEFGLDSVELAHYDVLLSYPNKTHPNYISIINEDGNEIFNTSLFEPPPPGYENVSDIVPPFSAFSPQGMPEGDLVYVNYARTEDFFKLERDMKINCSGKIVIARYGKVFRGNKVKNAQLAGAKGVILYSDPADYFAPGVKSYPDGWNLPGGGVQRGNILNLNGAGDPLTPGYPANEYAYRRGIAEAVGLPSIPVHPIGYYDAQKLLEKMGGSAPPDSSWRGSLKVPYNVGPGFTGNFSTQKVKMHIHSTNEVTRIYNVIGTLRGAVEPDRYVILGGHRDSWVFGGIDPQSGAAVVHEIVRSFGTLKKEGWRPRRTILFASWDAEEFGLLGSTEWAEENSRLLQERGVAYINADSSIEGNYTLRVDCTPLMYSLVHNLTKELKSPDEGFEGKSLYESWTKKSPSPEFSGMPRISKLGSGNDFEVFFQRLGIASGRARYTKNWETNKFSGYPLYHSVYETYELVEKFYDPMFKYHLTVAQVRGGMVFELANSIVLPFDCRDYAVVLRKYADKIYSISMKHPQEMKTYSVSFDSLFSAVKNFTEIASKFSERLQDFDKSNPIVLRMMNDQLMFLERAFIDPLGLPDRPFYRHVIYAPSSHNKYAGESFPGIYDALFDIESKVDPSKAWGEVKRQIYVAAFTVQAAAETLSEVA

[3] = biological target: T1, human prostate specific membrane …; assay: FMAT direct cell binding, DU145 PSMA cells
[4] = biological target: T1, human prostate specific membrane …; assay: FMAT cell binding, huPSMA CHO 1A10 cells, after 0 days in human serum at 37 C
[5] = biological target: T1, human prostate specific membrane …; assay: FMAT direct cell binding, LNCap cells
[6] = biological target: T1, human prostate specific membrane …; assay: FMAT cell binding, huPSMA CHO 1A10 cells, after 7 days in human serum at 37 C
[7] = biological target: T1, human prostate specific membrane …; assay: FMAT cell binding, huPSMA CHO 1A10 cells, after 1 day in human serum at 37 C
[8] = biological target: T3, cynomolgus PSMA, full-length, on CHO cells (cynomolgus, UniProt A0A2K5VNZ0 1-750); assay: cell-based or functional assay
[9] = biological target: T1, human prostate specific membrane …; assay: cell-based or functional assay
[10] = biological target: T1, human prostate specific membrane …; assay: FMAT direct cell binding, CHO human PSMA cells
[11] = biological target: T3, cynomolgus PSMA, full-length, on CHO …; assay: FMAT direct cell binding, CHO cyno PSMA cells
[12] = biological target: T1, human prostate specific membrane …; assay: cell-based or functional assay; remark: listed apart in the source
[13] = biological target: T1, human prostate specific membrane …; assay: FMAT direct cell binding, human PSMA-CHO cells
[14] = biological target: T1, human prostate specific membrane …; assay: FMAT cell binding, huPSMA CHO cells, after 0 days in human serum at 37 C
[15] = biological target: T1, human prostate specific membrane …; assay: FMAT cell binding, huPSMA CHO cells, after 4 days in human serum at 37 C
[16] = biological target: T1, human prostate specific membrane …; assay: FMAT cell binding, huPSMA CHO cells, after 7 days in human serum at 37 C
[17] = biological target: T1, human prostate specific membrane …; assay: FMAT cell binding, huPSMA CHO cells, after 1 day in human serum at 37 C
[18] = biological target: T3, cynomolgus PSMA, full-length, on CHO …; assay: FMAT Mirrorball direct cell binding, purified His-tagged VH titrated on CHO cells expressing cynomolgus PSMA, FL2 median binding signal [panel cynoPSMA-CHO binding]

T1 sequence (Q04609 whole entry): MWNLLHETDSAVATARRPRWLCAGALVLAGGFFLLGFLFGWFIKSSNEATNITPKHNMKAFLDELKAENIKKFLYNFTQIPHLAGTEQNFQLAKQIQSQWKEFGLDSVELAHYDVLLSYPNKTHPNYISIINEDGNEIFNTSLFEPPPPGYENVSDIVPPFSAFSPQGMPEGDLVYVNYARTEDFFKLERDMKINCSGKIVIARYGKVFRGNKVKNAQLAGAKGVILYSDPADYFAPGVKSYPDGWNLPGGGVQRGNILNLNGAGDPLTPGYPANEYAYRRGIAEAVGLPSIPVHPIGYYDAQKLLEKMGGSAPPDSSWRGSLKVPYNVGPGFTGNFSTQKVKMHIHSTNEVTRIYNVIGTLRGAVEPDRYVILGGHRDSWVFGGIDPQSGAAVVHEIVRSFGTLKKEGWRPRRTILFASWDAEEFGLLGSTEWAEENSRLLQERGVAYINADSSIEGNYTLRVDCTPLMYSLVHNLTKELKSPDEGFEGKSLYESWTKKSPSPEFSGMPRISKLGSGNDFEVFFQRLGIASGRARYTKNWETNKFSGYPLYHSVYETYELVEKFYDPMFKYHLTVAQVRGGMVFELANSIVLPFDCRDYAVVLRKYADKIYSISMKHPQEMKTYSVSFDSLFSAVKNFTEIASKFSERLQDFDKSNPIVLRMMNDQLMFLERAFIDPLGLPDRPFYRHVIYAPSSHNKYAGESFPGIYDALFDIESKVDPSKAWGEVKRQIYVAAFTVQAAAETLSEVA

Row | Binder | EC50 [1] [nM] | Kd [2] [nM] | koff [2] [s⁻¹] | EC50 [3] [nM] | EC50 [4] [nM] | EC50 [5] [nM] | EC50 [6] [nM] | EC50 [7] [nM] | EC50 [10] [nM] | EC50 [11] [nM] | pHrodo Green internalization assay, human PSMA Average EC50 (M) [12] [M] | EC50 [13] [nM] | EC50 [14] [nM] | EC50 [15] [nM] | EC50 [16] [nM] | EC50 [17] [nM] | EC50 (read off the curve) [18] [nM] | His-ZAP cell killing, cyno PSMA EC50 [8] [nM] | His-ZAP cell killing, human PSMA Average EC50 [9] [nM] | His-ZAP cell killing, cyno PSMA Average EC50 [8] [nM]
1 | 1.11-6GS-2.1 (bispecific antibody, linker (G4S)6; also called 1.11-2.1) EVQLLESGGGLVQPGGSLRLSCAASGFSFSSYALSWVRQAPGKGLEWVSSIGENNDTTDYADNVKGRFTISRDNSKNTLYLQMNSLRVEDTAVYYCVKDGVHWGQGTLVTVSSGGGGSGGGGSGGGGSGGGGSGGGGSGGGGSEVQLVESGGGVVQPGRSLRLSCAASGFSFSGYGMHWVRQAPGKGLEWVAYISYDGSNKYYADSVKGRFTISRDNSKNTLYLQMNSLRAEDTAVYYCAKDPAWGLRLGESSSYDFDIWGQGTMVTVSS |  |  |  |  |  |  |  |  |  |  |  | 0.287 | 0.0892 | 0.0736 | 0.0865 | 0.0605 |  |  | 0.017 | 0.012
2 | 1.16-6GS-2.1 (bispecific antibody, linker (G4S)6) EVQLLESGGGLVQPGGSLRLSCAASGFSFSSYALSWVRQAPGKGLEWVSSIGENNHTTDYADTVKGRFTISRDNSKNTLYLQMNSLRVEDTAVYYCVKDGVHWGQGTLVTVSSGGGGSGGGGSGGGGSGGGGSGGGGSGGGGSEVQLVESGGGVVQPGRSLRLSCAASGFSFSGYGMHWVRQAPGKGLEWVAYISYDGSNKYYADSVKGRFTISRDNSKNTLYLQMNSLRAEDTAVYYCAKDPAWGLRLGESSSYDFDIWGQGTMVTVSS |  |  |  |  |  |  |  |  |  |  |  | 0.306 | 0.0902 | 0.1 | 0.107 | 0.086 |  |  | 0.014 | 0.013
3 | 1.16-6GS-2.17 (bispecific antibody, linker (G4S)6) EVQLLESGGGLVQPGGSLRLSCAASGFSFSSYALSWVRQAPGKGLEWVSSIGENNHTTDYADTVKGRFTISRDNSKNTLYLQMNSLRVEDTAVYYCVKDGVHWGQGTLVTVSSGGGGSGGGGSGGGGSGGGGSGGGGSGGGGSEVQLVESGGGVVQPGRSLRLSCAASGFSFSGYGMHWVRQAPGKGLEWVAYISYDASNKYYADNVKGRFTISRDNSKNTLYLQMNSLRAEDTAVYYCAKDPAWGLRLGESSSYDFDIWGQGTMVTVSS |  |  |  |  |  |  |  |  |  |  |  | 0.333 | 0.0741 | 0.0628 | 0.0675 | 0.0944 |  |  | 0.015 | 0.011
4 | 1.11-6GS-2.17 (bispecific antibody, linker (G4S)6) EVQLLESGGGLVQPGGSLRLSCAASGFSFSSYALSWVRQAPGKGLEWVSSIGENNDTTDYADNVKGRFTISRDNSKNTLYLQMNSLRVEDTAVYYCVKDGVHWGQGTLVTVSSGGGGSGGGGSGGGGSGGGGSGGGGSGGGGSEVQLVESGGGVVQPGRSLRLSCAASGFSFSGYGMHWVRQAPGKGLEWVAYISYDASNKYYADNVKGRFTISRDNSKNTLYLQMNSLRAEDTAVYYCAKDPAWGLRLGESSSYDFDIWGQGTMVTVSS |  |  |  |  |  |  |  |  |  |  |  | 0.281 | 0.0639 | 0.0844 | 0.101 | 0.0725 |  |  | 0.0079 | 0.0081

Second part, led by results:

Row | EC50 [1] [nM] | Kd [2] [nM] | koff [2] [s⁻¹] | EC50 [3] [nM] | EC50 [4] [nM] | EC50 [5] [nM] | EC50 [6] [nM] | EC50 [7] [nM] | EC50 [10] [nM] | EC50 [11] [nM] | pHrodo Green internalization assay, human PSMA Average EC50 (M) [12] [M] | EC50 [13] [nM] | EC50 [14] [nM] | EC50 [15] [nM] | EC50 [16] [nM] | EC50 [17] [nM] | EC50 (read off the curve) [18] [nM] | Binder | His-ZAP cell killing, cyno PSMA EC50 [8] [nM] | His-ZAP cell killing, human PSMA Average EC50 [9] [nM] | His-ZAP cell killing, cyno PSMA Average EC50 [8] [nM]
5 | 0.319 | 0.59 | 0.000572 | 0.0495 | 0.304 | 0.0424 | 0.313 | 0.311 | 0.0586 | 0.124 | 3.1e-10 |  |  |  |  |  |  | single VH domain antibody 1.18 (VHH, Human single VH domain antibody (Humabody)) VHH: EVQLLESGGGLVQPGGSLRLSCAASGFSFSSYALSWVRQAPGKGLEWVSSIGENNATTDYAASVKGRFTISRDNSKNTLYLQMNSLRVEDTAVYYCVKDGVHWGQGTLVTVSS | 0.48 | 0.023 | 
6 |  |  |  |  |  |  |  |  |  |  |  |  |  |  |  |  | ~1 | 2.10 (VHH, On the sheet it is the filled up triangle; also called single VH domain antibody 2.10) VHH: EVQLVESGGGVVQPGRSLRLSCAASGFTFSGYGMHWVRQAPGKGLEWVAYISYDGSNRYYADSVKGRFTISRDNSKKTLSLQMNSLRAEDTAVYYCAKDPAWGLRLGESSSYDFDIWGQGTMVTVSS |  |  | 

Source: patent publication US20200131274A1 (CRESCENDO BIOLOGICS, published 2020)
